Biological target: Lysine-specific demethylase 1 (human (endogenous in HEL), UniProt O60341 1-852)
Test: affinity purification with mass spectrometry; LSD1-IP from HEL cells treated with NCD38 or DMSO; label-free quantification (Progenesis QI); binding rate change = normalized abundance in NCD38-treated cells divided by that in DMSO-treated cells, normalized to LSD1
Conditions: partners not purified

binding rate after NCD38 relative to DMSO: 27%
B1: GFI1B (natural protein)
chain: not shown
notes: GFI1B, human, UniProtKB Q5VTD9; source: endogenous, HEL whole-cell lysate
